Measurements: patent US20190016771A1 (Hoffmann-La Roche, published 2019)

Experiments:
[1] = target: T1, human fibroblast activation protein (FAP) on the cell surface (human, UniProt Q12884 1-760); assay: flow cytometry on WM-266-4 cells, FITC anti-human IgG F(ab')2 detection
T1 construct: also called huFAP; NIH/3T3-huFAP clone 39 cells
T1 sequence: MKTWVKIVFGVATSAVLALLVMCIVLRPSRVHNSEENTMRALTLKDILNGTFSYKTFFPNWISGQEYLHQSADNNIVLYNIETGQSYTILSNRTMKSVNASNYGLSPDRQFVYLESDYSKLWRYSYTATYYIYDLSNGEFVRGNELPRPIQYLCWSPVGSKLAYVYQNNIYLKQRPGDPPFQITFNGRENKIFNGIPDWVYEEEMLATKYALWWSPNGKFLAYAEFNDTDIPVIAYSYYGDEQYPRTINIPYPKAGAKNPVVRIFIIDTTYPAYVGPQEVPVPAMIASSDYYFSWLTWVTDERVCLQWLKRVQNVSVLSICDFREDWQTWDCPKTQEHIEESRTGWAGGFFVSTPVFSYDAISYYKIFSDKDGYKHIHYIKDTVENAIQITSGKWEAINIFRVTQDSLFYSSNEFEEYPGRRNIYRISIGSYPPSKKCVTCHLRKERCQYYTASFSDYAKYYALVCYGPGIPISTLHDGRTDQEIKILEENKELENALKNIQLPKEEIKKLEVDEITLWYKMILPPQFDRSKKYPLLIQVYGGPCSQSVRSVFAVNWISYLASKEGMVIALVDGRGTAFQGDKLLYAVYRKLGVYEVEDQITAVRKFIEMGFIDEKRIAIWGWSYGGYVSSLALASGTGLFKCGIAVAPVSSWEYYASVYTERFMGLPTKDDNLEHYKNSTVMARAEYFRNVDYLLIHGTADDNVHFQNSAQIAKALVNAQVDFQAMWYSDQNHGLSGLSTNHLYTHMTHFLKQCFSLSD
Experimental: Cells were stained for 120 minutes at 4° C. in the dark in 50 μL/well 4° C. cold FACS buffer (DPBS (Gibco by Life Technologies, Cat. No. 14190 326) w/ BSA (0.1% v/w, Sigma-Aldrich, Cat. No. A9418) containing titrated huCMP trimeric OX40 ligand-containing antigen binding molecules. After three times washing with excess FACS buffer, cells were stained for 60 minutes at 4° C. in the dark in 25 μL/well 4° C. cold FACS buffer containing Fluorescein isothiocyanate (FITC)-conjugated AffiniPure anti-human IgG F(ab′)₂-fragment-specific goat IgG F(ab′)₂ fragment (Jackson ImmunoResearch, Cat.-No. 109-096-097).
Plates were finally resuspended in 90 μL/well FACS-buffer containing 0.2 μg/mL DAPI (Santa Cruz Biotec, Cat. No. Sc-3598) and acquired the same day using 5-laser LSR-Fortessa (BD Bioscience with DIVA software).

[2] = target: T2, human OX40 (CD134) on the cell surface (human, UniProt P43489 29-277); assay: flow cytometry on activated human CD8+ T cells (OX40 positive); activated OX40 positive CD8+ T cells
T2 construct: whole, on cells; also called hOx40
T2 sequence (looked up): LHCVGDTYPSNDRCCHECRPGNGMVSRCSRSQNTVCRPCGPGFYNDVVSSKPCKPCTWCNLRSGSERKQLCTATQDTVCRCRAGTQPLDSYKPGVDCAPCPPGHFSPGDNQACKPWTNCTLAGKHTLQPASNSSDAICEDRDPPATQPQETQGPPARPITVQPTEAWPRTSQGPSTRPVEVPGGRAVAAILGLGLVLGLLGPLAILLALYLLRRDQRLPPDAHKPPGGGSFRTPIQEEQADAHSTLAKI
Experimental: (§1) PBMCs were used directly after isolation (binding on resting human PBMCs) or they were stimulated to receive a strong human Ox40 expression on the cell surface of T cells (binding on activated human PBMCs). Therefore naïve PBMCs were cultured for three days in T cell medium supplied with 200 U/mL Proleukin (Novartis) and […] PHA-L (Sigma-Aldrich, L2769-10) in 6-well tissue culture plate at 37° C. and 5% CO₂.
(§2) Cells were stained for 120 minutes at 4° C. in the dark in 50 μL/well 4° C. cold FACS buffer containing titrated anti-Ox40 antibody constructs. After three times washing with excess FACS buffer, cells were stained for 1 h at 4° C. in the dark in 25 μL/well 4° C. cold FACS buffer containing a mixture of fluorescently labeled anti-human CD4 (clone OKT4, mouse IgG1 k, BioLegend, Cat.-No. 317428), anti-human CD8 (clone RPa-T8, mouse IgG1k, BD Pharmingen, Cat.-No. 555368) and Fluorescein isothiocyanate (FITC)-conjugated AffiniPure anti-human IgG F(ab′)2-fragment-specific goat IgG F(ab′)₂ fragment (Jackson ImmunoResearch, Cat.-No. 109-096-097). Plates were finally resuspended in 90 μL/well FACS-buffer containing 0.2 μg/mL DAPI (Santa Cruz Biotec, Cat. No. Sc-3598) and acquired the same day using 5-laser LSR-Fortessa (BD Bioscience with DIVA software).

[3] = target: T2, human OX40 (CD134) on the cell surface; assay: flow cytometry on activated human CD4+ T cells (OX40 positive); activated OX40 positive CD4+ T cells
Experimental: as §1, §2

EC50 [1]: 17.3 nM
EC50 [2]: 3 nM
EC50 [3]: 10.2 nM
B1: FAP(28H1)-targeted human CMP trimeric OX40L-containing antigen binding molecule (other)
chain: EVQLLESGGGLVQPGGSLRLSCAASGFTFSSHAMSWVRQAPGKGLEWVSAIWASGEQYYADSVKGRFTISRDNSKNTLYLQMNSLRAEDTAVYYCAKGWLGNFDYWGQGTLVTVSSASTKGPSVFPLAPSSKSTSGGTAALGCLVKDYFPEPVTVSWNSGALTSGVHTFPAVLQSSGLYSLSSVVTVPSSSLGTQTYICNVNHKPSNTKVDKKVEPKSCDGGGGSGGGGSEEDPCACESLVKFQAKVEGLLQALTRKLEAVSKRLAILENTVVSGGGGSGGGGSGGGGSGGGGSQVSHRYPRIQSIKVQFTEYKKEKGFILTSQKEDEIMKVQDNSVIINCDGFYLISLKGYFSQEVDISLHYQKDEEPLFQLKKVRSVNSLMVASLTYKDKVYLNVTTDNTSLDDFHVNGGELILIHQNPGEFCVL
light: EIVLTQSPGTLSLSPGERATLSCRASQSVSRSYLAWYQQKPGQAPRLLIIGASTRATGIPDRFSGSGSGTDFTLTISRLEPEDFAVYYCQQGQVIPPTFGQGTKVEIKRTVAAPSVFIFPPSDEQLKSGTASVVCLLNNFYPREAKVQWKVDNALQSGNSQESVTEQDSKDSTYSLSSTLTLSKADYEKHKVYACEVTHQGLSSPVTKSFNRGEC
notes: also called trimeric FAP-huCMP-OX40L
